Molecular target: lrrt2_human LRRTM2 (UniProt O43300)
Sequence (O43300 whole entry): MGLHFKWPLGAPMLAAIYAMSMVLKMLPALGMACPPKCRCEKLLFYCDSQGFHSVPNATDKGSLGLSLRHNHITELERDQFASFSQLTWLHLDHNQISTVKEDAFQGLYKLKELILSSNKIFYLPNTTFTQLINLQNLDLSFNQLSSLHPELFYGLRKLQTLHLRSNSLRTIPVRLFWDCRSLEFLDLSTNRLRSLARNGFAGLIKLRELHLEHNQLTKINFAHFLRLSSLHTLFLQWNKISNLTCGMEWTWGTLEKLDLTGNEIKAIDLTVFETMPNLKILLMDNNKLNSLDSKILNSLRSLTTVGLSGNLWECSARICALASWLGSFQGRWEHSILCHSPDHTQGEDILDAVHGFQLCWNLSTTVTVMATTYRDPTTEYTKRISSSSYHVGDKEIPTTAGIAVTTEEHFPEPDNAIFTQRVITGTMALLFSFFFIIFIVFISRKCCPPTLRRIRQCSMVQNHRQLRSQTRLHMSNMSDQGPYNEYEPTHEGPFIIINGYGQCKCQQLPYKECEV

Chain of Neurexin-1-beta (Homo sapiens), P58400-1 D141A (P58400 other isoform, or with tags, fused parts or gaps D141A): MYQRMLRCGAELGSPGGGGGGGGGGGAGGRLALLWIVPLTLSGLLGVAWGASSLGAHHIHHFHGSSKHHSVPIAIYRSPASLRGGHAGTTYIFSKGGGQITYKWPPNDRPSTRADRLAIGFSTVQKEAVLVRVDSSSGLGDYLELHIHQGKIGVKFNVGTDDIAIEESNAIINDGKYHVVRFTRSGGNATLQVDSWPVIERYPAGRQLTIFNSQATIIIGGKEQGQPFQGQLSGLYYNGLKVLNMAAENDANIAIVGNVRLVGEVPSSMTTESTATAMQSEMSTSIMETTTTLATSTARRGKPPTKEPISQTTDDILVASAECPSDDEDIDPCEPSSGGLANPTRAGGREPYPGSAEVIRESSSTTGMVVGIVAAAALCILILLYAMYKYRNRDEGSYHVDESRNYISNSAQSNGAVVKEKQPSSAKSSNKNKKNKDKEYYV

“Neurexin-1-beta (Homo sapiens), P58400-1 D141A” was tested, and the “effect of a mutation on the interaction” value was “disrupting interaction strength”.
